Patent publication US20100136580A1 (Genentech, published 2010)

T1: GST-Dvl2PDZ fusion protein (human, UniProt O14641 248-364)
T1 construct: range 248-364; Made with the pGEX E. coli expression system; also called GST-PDZ fusion protein; not shown: glutathione S-transferase (GST) encoded by plasmid pGEX
T1 sequence (looked up): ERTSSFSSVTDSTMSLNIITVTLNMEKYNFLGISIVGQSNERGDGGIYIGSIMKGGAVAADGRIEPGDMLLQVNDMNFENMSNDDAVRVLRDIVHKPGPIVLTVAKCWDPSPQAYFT


molecular target: T1, GST-Dvl2PDZ fusion protein; assay: phage display selection on GST-Dvl2PDZ
Method: The libraries were cycled through rounds of binding selection with a GST-Dvl2PDZ fusion protein coated on 96-well Maxisorp immunoplates as the capture target. Phage were propagated in E. coli XL1-blue with M13-KO7 helper phage and 10 μM IPTG. After four rounds of binding selection, individual phage clones were analyzed in a high-throughput phage ELISA, and positive clones were subjected to DNA sequence analysis.
We used decapeptide libraries fused to the C-terminus or N-terminus of the phage coat protein. The library contained NNK degenerate codons that encoded all 20 natural amino acids. The possible occurrence of amber stop codons in the degenerate codon also provided for the display of shorter peptides for the C-terminal library. Each library was cycled through four rounds of binding selection with immobilized GST-Dvl2PDZ fusion protein as the capture target.

| binding result | Binder |
| --- | --- |
| binds | YFFYGWF [SEQ ID NO 31] |
| binds | KFLGWF [SEQ ID NO 30] |
| binds | RTRFTCFGWF [SEQ ID NO 34] |
| binds | NRIPCLGGW [SEQ ID NO 27] |
| binds | DRIRFLGWF [SEQ ID NO 14] |
| binds | QTIWKDYGII [SEQ ID NO 165] |
| binds | SHFKFFGWF [SEQ ID NO 26] |
| binds | TSWCKWYGWL [SEQ ID NO 12] |
| binds | GEMWVDGPCL [SEQ ID NO 151] |
| binds | MMWIDGPLAS [SEQ ID NO 150] |
| binds | QAVYKNYGWIGGG [SEQ ID NO 41] |
| binds | RIVSFFYGWL [SEQ ID NO 29] |
| binds | ETWIDGPMYT [SEQ ID NO 153] |
| binds | YWTRTFYGFF [SEQ ID NO 10] |
| binds | LLFLKYYGWL [SEQ ID NO 20] |
| binds | AEQWIDGPHL [SEQ ID NO 160] |
| binds | PRIFKDYGMF [SEQ ID NO 9] |
| binds | GEMWVDGPCL [SEQ ID NO 162] |
| binds | ERWIDYGYIL [SEQ ID NO 152] |
| binds | TWRVLGWF [SEQ ID NO 23] |
| binds | TSFLKGYGWL [SEQ ID NO 18] |
| binds | NRWRLLGWF [SEQ ID NO 11] |
| binds | LTEIWIDGWP [SEQ ID NO 154] |

The next lines start with the binder.

| Binder | binding result |
| --- | --- |
| NKRYTVLGWF [SEQ ID NO 6] | binds |
| SISYWFYGWL [SEQ ID NO 19] | binds |
| SWYFKFYGWL [SEQ ID NO 38] | binds |
| NWKWYGFF [SEQ ID NO 24] | binds |
| MTKWIWYGWL [SEQ ID NO 35] | binds |
| ELRWHDYGWIGGG [SEQ ID NO 40] | binds |
| SWKLLGFF [SEQ ID NO 17] | binds |
| AVRWLFLGWF [SEQ ID NO 15] | binds |
| NEVWIDGPGQ [SEQ ID NO 157] | binds |
| NEVWIDGPGI [SEQ ID NO 159] | binds |
| YTFFGWF [SEQ ID NO 25] | binds |
| TTEVWVDWPM [SEQ ID NO 161] | binds |
| FWIYKYYGRF [SEQ ID NO 13] | binds |
| TVRWVFFGFF [SEQ ID NO 33] | binds |
| SPRFTFLGWF [SEQ ID NO 28] | binds |
| TSSWKWYGWL [SEQ ID NO 8] | binds |
| TIWWDYGAI [SEQ ID NO 166] | binds |
| RISWTFLGYF [SEQ ID NO 36] | binds |
| IVRWTLLGIF [SEQ ID NO 7] | binds |
| AEVWVDGPYI [SEQ ID NO 164] | binds |
| ITRYTFFGFF [SEQ ID NO 39] | binds |
| RSGHRFLGWF [SEQ ID NO 16] | binds |
| TPLYNYFGGL [SEQ ID NO 32] | binds |
| PEVWIDGPESG [SEQ ID NO 156] | binds |
| STRHYRTWWF [SEQ ID NO 21] | binds |
| SWWNKCYGWF [SEQ ID NO 5] | binds |
| EWSHVYYGWLGGG [SEQ ID NO 42] | binds |
| NVFRFFGWL [SEQ ID NO 22] | binds |
| VPTWIDGPCVD [SEQ ID NO 158] | binds |
| RPFCTFLGWF [SEQ ID NO 37] | binds |
